What is called Kd is a measure of binding affinity in units of concentration.

For the assay, the target named is T1, recombinant mouse neuropilin-1 (C-6His, #C11R; NRP-1) (mouse, UniProt P97333 22-856).
T1 sequence (looked up): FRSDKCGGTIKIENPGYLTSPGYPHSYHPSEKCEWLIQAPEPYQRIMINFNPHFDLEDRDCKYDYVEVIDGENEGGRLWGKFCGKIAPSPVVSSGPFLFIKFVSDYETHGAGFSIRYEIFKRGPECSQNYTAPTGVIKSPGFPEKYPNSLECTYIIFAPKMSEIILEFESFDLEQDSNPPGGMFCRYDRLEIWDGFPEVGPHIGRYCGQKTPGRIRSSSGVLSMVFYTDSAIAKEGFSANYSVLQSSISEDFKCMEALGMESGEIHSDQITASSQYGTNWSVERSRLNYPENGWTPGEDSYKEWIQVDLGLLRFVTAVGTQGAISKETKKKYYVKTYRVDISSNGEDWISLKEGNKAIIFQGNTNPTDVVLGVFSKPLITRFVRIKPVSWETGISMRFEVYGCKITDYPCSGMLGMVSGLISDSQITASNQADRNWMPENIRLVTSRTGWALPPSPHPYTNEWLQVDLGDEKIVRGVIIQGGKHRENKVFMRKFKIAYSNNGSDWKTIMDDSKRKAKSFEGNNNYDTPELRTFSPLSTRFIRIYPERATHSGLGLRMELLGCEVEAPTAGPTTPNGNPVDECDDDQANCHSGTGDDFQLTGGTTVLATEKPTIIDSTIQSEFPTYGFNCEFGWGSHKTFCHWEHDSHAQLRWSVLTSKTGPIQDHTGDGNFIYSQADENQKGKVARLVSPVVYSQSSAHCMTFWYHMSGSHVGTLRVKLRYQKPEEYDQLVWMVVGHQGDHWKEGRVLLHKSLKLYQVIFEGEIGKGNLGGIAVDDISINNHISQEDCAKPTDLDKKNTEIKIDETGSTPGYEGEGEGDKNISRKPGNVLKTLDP
Put plainly: SPR.

With CGNKRTR [cancer homing peptide (CHP, CGNKRTR), free peptide], the Kd was 6.49 µM.

The record behind these values is PMC11933685 (Nature Communications, 2025).
